Stoichiometry N data for 3 substances are collected here from paper PMC8649396.

Assay [1] has as its target His-tagged phthalate dioxygenase from Comamonas testosteroni KF1 (Ht-PDOKF1) (Comamonas testosteroni KF1). Briefly: SEC.
In assay [2] the target is Phthalate dioxygenase from Comamonas testosteroni KF1 (PDOKF1), as crystallised (Comamonas testosteroni KF1). Nature of the assay: crystal structure.
In assay [3] the target is Rieske oxygenase from Cupriavidus metallidurans CH34 (RO_CH34) (Cupriavidus metallidurans CH34). Briefly: crystal structure.
Assay [4] shares this target. Briefly: SEC.

As to “His-tagged phthalate dioxygenase from Comamonas testosteroni KF1 (Ht-PDOKF1) (enzyme)”, the stoichiometry N in assay [1] was 6.

Consider “Phthalate dioxygenase from Comamonas testosteroni KF1 (PDOKF1), as crystallised (enzyme)”, for which the stoichiometry N in assay [2] is 6.

In the case of “Rieske oxygenase from Cupriavidus metallidurans CH34 (RO_CH34) (enzyme)”, the stoichiometry N in assay [3] and in assay [4] was 3 in each case.
